{"source": "paper PMC3089553", "about": "(The Journal of Biological Chemistry, 2011)", "target": "T1, His-CTNNBL1(Δ1–76) (UniProt Q8WYA6 77-563)", "T1 sequence (looked up)": "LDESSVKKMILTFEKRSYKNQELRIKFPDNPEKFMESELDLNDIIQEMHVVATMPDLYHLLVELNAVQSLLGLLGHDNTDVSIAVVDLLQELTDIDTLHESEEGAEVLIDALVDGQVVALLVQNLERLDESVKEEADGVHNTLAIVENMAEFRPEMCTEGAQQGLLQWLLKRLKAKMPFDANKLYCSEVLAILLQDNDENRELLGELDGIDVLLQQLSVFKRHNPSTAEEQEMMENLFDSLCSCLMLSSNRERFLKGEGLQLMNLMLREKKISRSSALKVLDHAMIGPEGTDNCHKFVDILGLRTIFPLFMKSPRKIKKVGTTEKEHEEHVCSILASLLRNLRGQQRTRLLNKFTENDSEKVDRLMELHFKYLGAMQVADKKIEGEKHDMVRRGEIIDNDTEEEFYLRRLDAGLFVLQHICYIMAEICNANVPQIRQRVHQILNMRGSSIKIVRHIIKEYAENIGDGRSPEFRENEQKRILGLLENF", "assay": "ITC"}
{"binder": "KKRKRKR", "note": "[CDC5L NLS3 peptide]", "values": [{"measurement": "dH1 (site 1)", "result": "-1.48 ± 0.11", "unit": "kcal/mol"}, {"measurement": "dH2 (site 2)", "result": "-3.28 ± 0.15", "unit": "kcal/mol"}]}
